Measurements published in US10689452 (UNIVERSIT T STUTTGART, dated 2020).
Positions count from the first letter of the chain named.

B1: scFvIG11 (scFv, V domains shown)
VH: QVQLVQSGAEVKKPGSSVKVSCKASGYTFTDFYINWVRQAPGQGLEWIGEIVPTQGEAKYNDKFKARVTITADKSTSTAYMELSSLRSEDTAVYYCARWDFLDYWGQGTTVTVSS
VL: DIVMTQSPLSLPVTPGEPASISCRSSQSLLHSNGNTYLHWYLQKPGQSPQLLIYTVSNRFSGVPDRFSGSGSGTDFTLKISRVEAEDVGVYYCSQSTHVPYTFGGGTKVEIK
B2: scFvFRK13.7 (scFv, V domains shown)
VH: B1 VH with Q1H, T54S
VL: DVQMTQSPSSLSASVGDRVTITCRSSQSLLHSNGNTYLHWYQQKPGKAPKLLIYTVSNRFSGVPSRFSGSGSGTDFTLTISSLQPEDFATYYCSQSTHVPYTFGGGTKVEIK
B3: IgG13.7half (antibody, V domains shown)
VH: B1 VH with Q1H, T54S
VL: DVQMTQSPSSLSASVGDRVTITCRSSQSLLHSNGNTYLHWYQQKPGKAPKLLIYTVSNRFSGVPSRFSGSGSGTDFTLTISSLQPEDFATYYCSQSTHVPYTFGGGTKVEIKR
notes: Monovalent half IgG1
B4: Fab13.7PEG (Fab, V domains shown)
VH: B1 VH with Q1H, T54S
VL: B3 VL
modifications: PEG (printed 'PEG400.000' in paragraph 589; methoxy-PEG 40 kDa maleimide in paragraph 649) conjugated to the newly introduced cysteine of the C-terminal ...DKTHTCAA (SEQ ID 34)
notes: also called PEGylated Fab13.7'; PEGylated derivative of Fab13.7
B5: scFvFRK13.5 (scFv, V domains shown)
VH: B1 VH with Q1H, T54S
VL: B2 VL with V2I
notes: also called scFvFKR13.5
B6: scFvFRK13.8 (scFv, V domains shown)
VH: QVQLVESGGGLVKPGGSLRLSCAASGFTFSDFYINWIRQAPGKGLEWVSEIYPYSGHAYYNEKFKARFTISADNAKNSLYLQMNSLRAEDTAVYYCARWDFLDYWGQGTTVTVSS
VL: B1 VL with S96G
B7: scFvFRK13.1 (scFv, V domains shown)
VH: B6 VH with A72R
VL: B2 VL with V2I
B8: scFvFRK13.3 (scFv, V domains shown)
VH: B6 VH with A72R
VL: B2 VL
B9: scFvFRK13.4 (scFv, V domains shown)
VH: B6 VH
VL: B2 VL with V2I
B10: Fab13.7-MSA (Fab)
heavy: HVQLVQSGAEVKKPGSSVKVSCKASGYTFTDFYINWVRQAPGQGLEWIGEIVPSQGEAKYNDKFKARVTITADKSTSTAYMELSSLRSEDTAVYYCARWDFLDYWGQGTTVTVSSASTKGPSVFPLAPSSKSTSGGTAALGCLVKDYFPEPVTVSWNSGALTSGVHTFPAVLQSSGLYSLSSVVTVPSSSLGTQTYICNVNHKPSNTKVDKKVEPKSCGGGGSGGGGSSLEAHKSEIAHRYNDLGEQHFKGLVLIAFSQYLQKCSYDEHAKLVQEVTDFAKTCVADESAANCDKSLHTLFGDKLCAIPNLRENYGELADCCTKQEPERNECFLQHKDDNPSLPPFERPEAEAMCTSFKENPTTFMGHYLHEVARRHPYFYAPELLYYAEQYNEILTQCCAEADKESCLTPKLDGVKEKALVSSVRQRMKCSSMQKFGERAFKAWAVARLSQTFPNADFAEITKLATDLTKVNKECCHGDLLECADDRAELAKYMCENQATISSKLQTCCDKPLLKKAHCLSEVEHDTMPADLPAIAADFVEDQEVCKNYAEAKDVFLGTFLYEYSRRHPDYSVSLLLRLAKKYEATLEKCCAEANPPACYGTVLAEFQPLVEEPKNLVKTNCDLYEKLGEYGFQNAILVRYTQKAPQVSTPTLVEAARNLGRVGTKCCTLPEDQRLPCVEDYLSAILNRVCLLHEKTPVSEHVTKCCSGSLVERRPCFSALTVDETYVPKEFKAETFTFHSDICTLPEKEKQIKKQTALAELVKHKPKATAEQLKTVMDDFAQFLDTCCKAADKDTCFSTEGPNLVGGAAAHHHHHH
light: DVQMTQSPSSLSASVGDRVTITCRSSQSLLHSNGNTYLHWYQQKPGKAPKLLIYTVSNRFSGVPSRFSGSGSGTDFTLTISSLQPEDFATYYCSQSTHVPYTFGGGTKVEIKRTVAAPSVFIFPPSDEQLKSGTASVVCLLNNFYPREAKVQWKVDNALQSGNSQESVTEQDSKDSTYSLSSTLTLSKADYEKHKVYACEVTHQGLSSPVTKSFNRGEC
notes: also called Fab13.7 MSA fusion protein

Key:
[1] = biological target: T1, human TNFR1-Fc fusion protein (human, UniProt P19438 29-211); assay: QCM, human TNFR1-Fc immobilised
T1 construct: range 29-211; Made in stably transfected HEK293 cells; coated on ELISA plates or immobilised on QCM chips; also called huTNFR1-Fc; human TNFR-Fc; not shown: Fc part from vector pSecTagL1-Fc
T1 sequence (looked up): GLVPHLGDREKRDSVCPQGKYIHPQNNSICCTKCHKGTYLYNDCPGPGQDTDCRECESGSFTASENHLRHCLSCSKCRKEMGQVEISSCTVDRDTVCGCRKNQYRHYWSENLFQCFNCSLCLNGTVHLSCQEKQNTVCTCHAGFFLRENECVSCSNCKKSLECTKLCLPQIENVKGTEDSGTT
Description: (§1) Real-time binding dynamics in protein-protein interactions were determined by quartz crystal microbalance measurements (A-100 C-Fast or Cell-200 C-Fast, Attana, Stockholm, Sweden). One of the binding partners (ligand, e.g. TNFR1-Fc) was chemically immobilized on a carboxyl sensor chip according to the manufacturer's protocol at different densities (nearly 200 Hz in the case of saturating conditions to confirm previously published results and 50-100 Hz, in particular at about 50 Hz, to establish conditions of lower receptor density, better resembling the situation on the cellular surface). Binding experiments were performed with samples (analyte) diluted in PBST (PBS, 0.1% Tween 20) at pH 7.4 with a flow rate of 25 µl/min at 37° C. The chip was regenerated with 25 µl 5 mM NaOH or 20 mM glycine, pH 2.0. Every third measurement, an injection of running buffer was measured which was subtracted from the binding curve. Data were collected using the software provided by Attana for the particular device and analyzed by Attaché Office Evaluation software (Attana, Stockholm, Sweden) and TraceDrawe (ridgview instruments, Vange, Sweden).

[2] = biological target: T1, human TNFR1-Fc fusion protein; assay: QCM, soluble scFv, moderate receptor density
Description: as §1

[3] = biological target: T1, human TNFR1-Fc fusion protein; assay: ELISA, human TNFR1-Fc
[4] = biological target: T2, human TNFR1 on cells (HT1080, HeLa, Kym-1) (human, UniProt P19438 30-455); assay: cell-based or functional assay
T2 sequence (looked up): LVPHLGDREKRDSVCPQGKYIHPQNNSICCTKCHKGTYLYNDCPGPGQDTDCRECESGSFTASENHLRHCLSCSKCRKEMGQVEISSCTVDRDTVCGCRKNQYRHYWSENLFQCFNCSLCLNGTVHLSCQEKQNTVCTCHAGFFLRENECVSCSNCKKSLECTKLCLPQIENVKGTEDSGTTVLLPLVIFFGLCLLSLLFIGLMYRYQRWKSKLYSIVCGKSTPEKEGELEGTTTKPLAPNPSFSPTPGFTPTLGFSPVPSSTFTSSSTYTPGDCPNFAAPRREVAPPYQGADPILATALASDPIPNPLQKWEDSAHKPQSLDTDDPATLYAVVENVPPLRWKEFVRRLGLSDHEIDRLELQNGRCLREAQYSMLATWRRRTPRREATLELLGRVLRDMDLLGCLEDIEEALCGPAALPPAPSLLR

[5] = biological target: T1, human TNFR1-Fc fusion protein; assay: QCM
[6] = biological target: T1, human TNFR1-Fc fusion protein; assay: ELISA, human TNFR1-Fc; remark: listed apart in the source
[7] = biological target: T2, human TNFR1 on cells (HT1080, HeLa, …); assay: cell-based or functional assay; remark: listed apart in the source
[8] = biological target: T2, human TNFR1 on cells (HT1080, HeLa, …); assay: cell-based or functional assay; remark: listed apart in the source
[9] = biological target: T1, human TNFR1-Fc fusion protein; assay: ELISA, immobilised human TNFR1-Fc
[10] = biological target: T2, human TNFR1 on cells (HT1080, HeLa, …); assay: cell-based or functional assay; remark: listed apart in the source
[11] = biological target: T1, human TNFR1-Fc fusion protein; assay: ELISA, immobilised human TNFR1-Fc; remark: listed apart in the source
[12] = biological target: T1, human TNFR1-Fc fusion protein; assay: ELISA on coated human TNFR1-Fc, scFv titrated, signal as Binding [%]
Description: FIG. 9. Binding to and blockade of human TNFR1.
Microtiter plates were coated with 100 µl of the indicated protein (1 µg/ml in PBS, see Table 3.3) and incubated at 4° C. over night. The residual binding sites were blocked with 2% MPBS (skim milk in PBS, 200 µl per well) at room temperature for 2 hours and subsequently washed twice with PBS. 100 µl of the samples diluted in 2% MPBS were incubated at room temperature for 1 hour prior to the last incubation step with 100 µl of the HRP conjugated detection antibodies in 2% MPBS. In the case of competition experiments, both analyzed protein samples were prepared individually (either titrated or diluted to a single concentration) and mixed before they were applied to the plate. Bound protein was detected with 100 µl TMB substrate solution, the HRP-reaction was stopped by the addition of 50 µl 1 M H2SO4 and the absorption at the wavelength of 450 nm was measured using the Infinite microtiter plate reader (TECAN, Maennedorf, Switzerland). Between each incubation step and in advance of the detection, the plates were washed three times with PBST and twice with PBS.

Row | Binder | fold higher IC50 (IL-8 release inhibition) compared to Fab13.7 [8] [fold] | fold increased EC50 compared to unmodified Fab13.7 [9] [fold] | IL-8 Inhibition IC50 [nM] (HT1080 cells, 0.1 nM soluble TNF) [10] | EC50 [11] [nM] | binding result [12] | also measured
1 | B1 | – | – | – | – | – | Kd [1]: 24.9 nM; koff [1]: 0.0036 s⁻¹; kon [1]: 150000 M⁻¹ s⁻¹; relative koff (compared with scFvIZI06.1) [2]: 0.31 relative to scFvIZI06.1; EC50 [3]: 2.6 nM; IC50 (nM), approximated; inhibition of TNF (0.1 nM) induced IL-8 release [4]: ~300 nM; fold KD compared with scFvIZI06.1 [5]: 2 fold; fold reduced koff compared with scFvIZI06.1 [5]: ~3 fold; koff [5]: 0.00026 s⁻¹
2 | B2 | – | – | – | – | – | EC50 [6]: 1.09 nM; IC50 (nM), inhibition of TNF-induced IL-8 release from HT1080 cells [7]: 284 nM
3 | B3 | 1.8 | 1.9 | 63.3 | 0.8 | – | –
4 | B4 | 4.9 | 2.6 | 98.2 | 5 | – | –
5 | B5 | – | – | – | – | – | EC50 [6]: 1.06 nM; IC50 (nM), inhibition of TNF-induced IL-8 release from HT1080 cells [7]: 367 nM
6 | B6 | – | – | – | – | binds | –
7 | B7 | – | – | – | – | binds | –
8 | B8 | – | – | – | – | binds | –
9 | B9 | – | – | – | – | binds | –
10 | B10 | 1.9 | 1.7 | 65.5 | 0.7 | – | –
